The source of these data is patent US12545899B2, “Luciferase enzymes for use with thermostable luciferins in bioluminescent assays” (Promega Corporation, priority 2018, dated 2026).

Data set [1] can be described thus: Differential scanning fluorimetry (DSF) analysis. It counts as physicochemical. Conditions: Table 9A. Summed up:
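Enzymes mixed with Sypro Orange at 5× final, heated 30–95° C at 1° C per minute with fluorescence read every 60 s. Storage buffer 50 mM HEPES pH 7.5, 100 mM NaCl, 2 mM EDTA, or for luciferase variants 20 mM HEPES pH 7.5, 200 mM NaCl, 1 mM EDTA; per-minute fluorescence change plotted against temperature.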

Data set [2] can be described thus: Effect of individual mutations: maximum luminescence with CS0333. In kind it is biochemical. Conditions: for Vmax (RLU) with CS0333: 10 fM to 1 mM CS0333, Detection Reagent (DR) buffer. How it is done: Experiments were also conducted to evaluate and compare the activities of the various luciferase enzyme variants, including the effects of individual amino acid mutations. To evaluate the effect of individual mutations on luciferase enzyme variants, 0.005 mg/ml luciferase enzyme variant was mixed with 1 mM ATP+10 fM to 1 mM CS0333 in Detection Reagent (DR) buffer.

The nature of data set [3]: Luminescence at 1 mM D/L-luciferin (Table 11). In kind it is biochemical. Conditions: 1 mM substrate, 1 mM ATP. The text has this:
(§1) Tables 10 and 11 include representative results of kinetic analysis of the thermostable variants with D/L luciferin, CS0333, and CS0280. […] MK0135 and MK0137 have amino acid substitutions that improve thermostability relative to MK0133 and MK0134, respectively, while retaining activity on the luciferin analogs CS0333 and CS0280.

A short description of data set [4]: Luminescence at 1 mM CS0333 (Table 11). It counts as biochemical. The note with it: 1 mM substrate, 1 mM ATP.
Source text: as §1

Data set [5] can be described thus: Luminescence at 1 mM CS0280 (Table 11). It counts as biochemical. The note with it: 1 mM substrate, 1 mM ATP.
Source text: as §1

Data set [6] is described as follows: Kinetic analysis of thermostable variants with D/L-luciferin (Tables 13, 14). Conditions: 2 mM ATP. It counts as biochemical.
A short description of data set [7]: Kinetic analysis of thermostable variants with CS0333 (Tables 13, 14). In kind it is biochemical. The note with it: 2 mM ATP.
Data set [8] in a line: Kinetic analysis of thermostable variants with CS0280 (Tables 13, 14). The note with it: 2 mM ATP. It counts as biochemical.

B1: MK0110: SEQ ID NO: 77; H244W (protein)
chain: MADKNILYGPEPFYPLEDGTAGEQMFDALSRYAAIPGCIALTNAHTKENVLYEEFLKLSCRLAESFKKYGLKQNDTIAVCSENSLQFFLPVIASLYLGIIVAPVNDKYVERELIHSLGIVKPRIVFCSKNTFQKVLNVKSKLKSIETIIILDLNEDLGGYQCLNNFISQNSDSNLDVKKFKPYSFNRDDQVASIMFSSGTTGLPKGVMLTHKNIVARFSIAKDPTFGDAINPTSAILTVIPFHWGFGMMTTLGYFTCGFRVVLMHTFEEKLFLQSLQDYKVESTLLVPTLMAFLAKSALVEKYDFPHLKEIASGGAPLSKEIGEMVKKRFKLNFVRQGYGLTEATSAVLITPKGDAKPGSTGKIVPLHAVKVVDPTTGKILGPNEPGELYFKGPMKMKGYYNNEEATKAIIDNDGWLRSGDIAYYDNDGHFYIVDRLKSLIKYKGYQVAPAEIEGILLQHPYIVDAGVTGIPDEAAGELPAAGVVVQTGKYLNEQIVQDYVASQVSTAKWLRGGVKFLDEIPKGSTGKIDRKVLRQMLEKHTNGHHHHHHHH
In the case of B1, the “DSF Tm (° C.)” value in data set [1] was found to be 80 °C. For the same molecule, in data set [2], the “Vmax (RLU) with CS0333” value was 9,534 RLU. Also, the “improvement of maximum luminescence with CS0333 above background” value in data set [2] (single point mutation introduced into the Ppe variant, DR buffer) is reported as around 5 fold.

B2: MK0111: SEQ ID NO: 78; L305F (protein)
chain: MADKNILYGPEPFYPLEDGTAGEQMFDALSRYAAIPGCIALTNAHTKENVLYEEFLKLSCRLAESFKKYGLKQNDTIAVCSENSLQFFLPVIASLYLGIIVAPVNDKYVERELIHSLGIVKPRIVFCSKNTFQKVLNVKSKLKSIETIIILDLNEDLGGYQCLNNFISQNSDSNLDVKKFKPYSFNRDDQVAAIMFSSGTTGLPKGVMLTHKNIVARFSIAKDPTFGDAINPTSAILTVIPFHHGFGMMTTLGYFTCGFRVVLMHTFEEKLFLQSLQDYKVESTLLVPTLMAFLAKSALVEKYDFPHLKEIASGGAPLSKEIGEMVKKRFKLNFVRQGYGLTEATSAVLITPKGDAKPGSTGKIVPLHAVKVVDPTTGKILGPNEPGELYFKGPMKMKGYYNNEEATKAIIDNDGWLRSGDIAYYDNDGHFYIVDRLKSLIKYKGYQVAPAEIEGILLQHPYIVDAGVTGIPDEAAGELPAAGVVVQTGKYLNEQIVQDYVASQVSTAKWLRGGVKFLDEIPKGSTGKIDRKVLRQMLEKHTNGHHHHHHHH
For B2, the “DSF Tm (° C.)” value in data set [1] came out at 79 °C. In data set [2], the “Vmax (RLU) with CS0333” value is 1,166 RLU.

B3: MK0114: SEQ ID NO: 81; T344M (protein)
chain: MADKNILYGPEPFYPLEDGTAGEQMFDALSRYAAIPGCIALTNAHTKENVLYEEFLKLSCRLAESFKKYGLKQNDTIAVCSENSLQFFLPVIASLYLGIIVAPVNDKYVERELIHSLGIVKPRIVFCSKNTFQKVLNVKSKLKSIETIIILDLNEDLGGYQCLNNFISQNSDSNLDVKKFKPYSFNRDDQVAAIMFSSGTTGLPKGVMLTHKNIVARFSIAKDPTFGDAINPTSAILTVIPFHWGFGMMTTLGYFTCGFRVVLMHTFEEKLFLQSLQDYKVESTLLVPTLMAFLAKSALVEKYDFPHLKEIASGGAPLSKEIGEMVKKRFKLNFVRQGYGLTETTSAVLITPKGDAKPGSTGKIVPLHAVKVVDPTTGKILGPNEPGELYFKGPMKMKGYYNNEEATKAIIDNDGWLRSGDIAYYDNDGHFYIVDRLKSLIKYKGYQVAPAEIEGILLQHPYIVDAGVTGIPDEAAGELPAAGVVVQTGKYLNEQIVQDYVASQVSTAKWLRGGVKFLDEIPKGSTGKIDRKVLRQMLEKHTNGHHHHHHHH
B3: the “DSF Tm (° C.)” value in data set [1] is 70 °C. Besides, the “Vmax (RLU) with CS0333” value in data set [2] was 1,030 RLU.

B4: MK0113: SEQ ID NO: 80; T344A (protein)
chain: MADKNILYGPEPFYPLEDGTAGEQMFDALSRYAAIPGCIALTNAHTKENVLYEEFLKLSCRLAESFKKYGLKQNDTIAVCSENSLQFFLPVIASLYLGIIVAPVNDKYVERELIHSLGIVKPRIVFCSKNTFQKVLNVKSKLKSIETIIILDLNEDLGGYQCLNNFISQNSDSNLDVKKFKPYSFNRDDQVAAIMFSSGTTGLPKGVMLTHKNIVARFSIAKDPTFGDAINPTSAILTVIPFHWGFGMMTTLGYFTCGFRVVLMHTFEEKLFLQSLQDYKVESTLLVPTLMAFLAKSALVEKYDFSHLKEIASGGAPLSKEIGEMVKKRFKLNFVRQGYGLTEATSAVLITPKGDAKPGSTGKIVPLHAVKVVDPTTGKILGPNEPGELYFKGPMKMKGYYNNEEATKAIIDNDGWLRSGDIAYYDNDGHFYIVDRLKSLIKYKGYQVAPAEIEGILLQHPYIVDAGVTGIPDEAAGELPAAGVVVQTGKYLNEQIVQDYVASQVSTAKWLRGGVKFLDEIPKGSTGKIDRKVLRQMLEKHTNGHHHHHHHH
In the case of B4, the “DSF Tm (° C.)” value in data set [1] amounted to 71 °C. Besides, the “Vmax (RLU) with CS0333” value in data set [2] is 1,948 RLU.

B5: MK0112: SEQ ID NO: 79; S306P (protein)
chain: MADKNILYGPEPFYPLEDGTAGEQMFDALSRYAAIPGCIALTNAHTKENVLYEEFLKLSCRLAESFKKYGLKQNDTIAVCSENSLQFFLPVIASLYLGIIVAPVNDKYVERELIHSLGIVKPRIVFCSKNTFQKVLNVKSKLKSIETIIILDLNEDLGGYQCLNNFISQNSDSNLDVKKFKPYSFNRDDQVAAIMFSSGTTGLPKGVMLTHKNIVARFSIAKDPTFGDAINPTSAILTVIPFHWGFGMMTTLGYFTCGFRVVLMHTFEEKLFLQSLQDYKVESTLLVPTLMAFLAKSALVEKYDLPHLKEIASGGAPLSKEIGEMVKKRFKLNFVRQGYGLTEATSAVLITPKGDAKPGSTGKIVPLHAVKVVDPTTGKILGPNEPGELYFKGPMKMKGYYNNEEATKAIIDNDGWLRSGDIAYYDNDGHFYIVDRLKSLIKYKGYQVAPAEIEGILLQHPYIVDAGVTGIPDEAAGELPAAGVVVQTGKYLNEQIVQDYVASQVSTAKWLRGGVKFLDEIPKGSTGKIDRKVLRQMLEKHTNGHHHHHHHH
With B5, the “DSF Tm (° C.)” value in data set [1] worked out at 80 °C. The “Vmax (RLU) with CS0333” value in data set [2] is recorded as 1,232 RLU.

B6: MK0159: SEQ ID NO: 124; H244W+S193A+N228D+L305F+S306P+I109V+C38R+F55I+Y108F+A316W+Y339M+T342S+V348I+T284A+T289S+S313T+W510R (protein)
chain: MADKNILYGPEPFYPLEDGTAGEQMFDALSRYAAIPGRIALTNAHTKENVLYEEILKLSCRLAESFKKYGLKQNDTIAVCSENSLQFFLPVIASLYLGIIVAPVNDKFVERELIHSLGIVKPRIVFCSKNTFQKVLNVKSKLKSIETIIILDLNEDLGGYQCLNNFISQNSDSNLDVKKFKPYSFNRDDQVAAIMFSSGTTGLPKGVMLTHKNIVARFSIAKDPTFGDAINPTSAILTVIPFHWGFGMMTTLGYFTRGFRVVLMHTFEEKLFLQSLQDYKVESALLVPSLMAFLAKSALVEKYDFPHLKEIATGGWPLSKEIGEMVKKRFKLNFVRQGMGLSETTSAILITPRGDAKPGSTGKIVPLHAVKVVDPTTGKILGPNEPGELYFKGPMIMKGYYNNEEATKAIIDNDGWLRSGDIAYYDNDGHFYIVGRRKSLIKYKGYQVAPAEIEGILLQHPYIVDAGVTGIPDEAAGELPAAGVVVQTGKYLNEQIVQDYVASQVSTAKRLRGGVKFLDEIPKGSTGKIDRKVLRQMLEKHTNGHHHHHHHH
As for B6, in data set [3] (BrightGlo Buffer), the “Vmax (RLU) D/L-luciferin BrightGlo Buffer” value is recorded as 688,326 RLU. Further, the “Vmax (RLU) D/L-luciferin Detection Reagent Buffer” value in data set [3] (Detection Reagent Buffer) is 106,195 RLU. Also, the “Vmax (RLU) CS0333 BrightGlo Buffer” value in data set [4] (BrightGlo Buffer) was 6,850,630 RLU. For the same molecule, in data set [4] (Detection Reagent Buffer), the “Vmax (RLU) CS0333 Detection Reagent Buffer” value is recorded as 4,630,740 RLU. Also, in data set [5] (BrightGlo Buffer), the “Vmax (RLU) CS0280 BrightGlo Buffer” value is recorded as 2,094,150 RLU. Besides, the “Vmax (RLU) CS0280 Detection Reagent Buffer” value in data set [5] (Detection Reagent Buffer) was 110,050 RLU. In addition, the Michaelis-Menten constant (Km) in data set [6] (BrightGlo Buffer) came to 0.107 µM; in data set [6] (Detection Reagent Buffer) it was 0.444 µM; in data set [7] (BrightGlo Buffer) it was 14.7 µM; in data set [7] (Detection Reagent Buffer), 20.9 µM; in data set [8] (BrightGlo Buffer), 2.78 µM; in data set [8] (Detection Reagent Buffer), 602 µM. Moreover, the “Vmax (RLU)” value in data set [6] (BrightGlo Buffer) is on record as 2,363,790 RLU; in data set [6] (Detection Reagent Buffer), 369,822 RLU; in data set [7] (BrightGlo Buffer), 1,528,708 RLU; in data set [7] (Detection Reagent Buffer), 523,610 RLU; in data set [8] (BrightGlo Buffer), 439,625 RLU; in data set [8] (Detection Reagent Buffer) it was 40,925 RLU.
